Data from patent US20240336672A1 (INSTITUT PASTEUR, published 2024).
Changes are numbered by the printed parent chain.

T1: CoV-229E Spike ectodomain (229E-CoV, UniProt P15423 16-1113)
T1 chain: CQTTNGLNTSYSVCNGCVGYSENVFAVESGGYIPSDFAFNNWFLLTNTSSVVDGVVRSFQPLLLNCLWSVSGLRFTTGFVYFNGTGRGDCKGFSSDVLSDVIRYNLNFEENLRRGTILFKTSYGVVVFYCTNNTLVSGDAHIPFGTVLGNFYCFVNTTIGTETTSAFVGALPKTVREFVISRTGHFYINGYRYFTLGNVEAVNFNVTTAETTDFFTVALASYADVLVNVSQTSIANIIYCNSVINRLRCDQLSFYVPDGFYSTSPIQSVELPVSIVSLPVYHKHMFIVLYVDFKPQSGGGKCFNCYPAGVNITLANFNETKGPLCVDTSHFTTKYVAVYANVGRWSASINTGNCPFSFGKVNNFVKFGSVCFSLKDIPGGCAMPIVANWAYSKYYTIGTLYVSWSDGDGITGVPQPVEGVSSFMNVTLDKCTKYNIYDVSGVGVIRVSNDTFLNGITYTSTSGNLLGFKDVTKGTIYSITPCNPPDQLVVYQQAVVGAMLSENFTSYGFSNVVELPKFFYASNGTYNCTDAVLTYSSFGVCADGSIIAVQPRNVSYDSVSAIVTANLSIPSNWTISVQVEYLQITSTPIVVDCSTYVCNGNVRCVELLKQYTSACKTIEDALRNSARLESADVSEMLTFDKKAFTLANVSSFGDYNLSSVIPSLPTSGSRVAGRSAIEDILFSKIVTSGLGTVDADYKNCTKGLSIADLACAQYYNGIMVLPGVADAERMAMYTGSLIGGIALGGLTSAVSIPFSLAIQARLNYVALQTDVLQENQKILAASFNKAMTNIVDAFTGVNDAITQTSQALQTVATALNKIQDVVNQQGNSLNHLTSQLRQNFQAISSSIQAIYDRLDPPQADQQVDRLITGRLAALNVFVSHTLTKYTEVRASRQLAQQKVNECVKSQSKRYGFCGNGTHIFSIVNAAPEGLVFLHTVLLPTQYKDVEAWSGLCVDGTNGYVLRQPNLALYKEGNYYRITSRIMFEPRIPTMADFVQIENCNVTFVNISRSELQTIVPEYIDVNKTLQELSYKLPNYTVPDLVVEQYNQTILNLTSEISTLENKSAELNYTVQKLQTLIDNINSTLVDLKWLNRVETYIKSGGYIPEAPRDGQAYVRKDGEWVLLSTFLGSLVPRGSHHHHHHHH

T2: CoV-OC43 Spike ectodomain (OC43-CoV, UniProt P36334 14-1263)
T2 chain: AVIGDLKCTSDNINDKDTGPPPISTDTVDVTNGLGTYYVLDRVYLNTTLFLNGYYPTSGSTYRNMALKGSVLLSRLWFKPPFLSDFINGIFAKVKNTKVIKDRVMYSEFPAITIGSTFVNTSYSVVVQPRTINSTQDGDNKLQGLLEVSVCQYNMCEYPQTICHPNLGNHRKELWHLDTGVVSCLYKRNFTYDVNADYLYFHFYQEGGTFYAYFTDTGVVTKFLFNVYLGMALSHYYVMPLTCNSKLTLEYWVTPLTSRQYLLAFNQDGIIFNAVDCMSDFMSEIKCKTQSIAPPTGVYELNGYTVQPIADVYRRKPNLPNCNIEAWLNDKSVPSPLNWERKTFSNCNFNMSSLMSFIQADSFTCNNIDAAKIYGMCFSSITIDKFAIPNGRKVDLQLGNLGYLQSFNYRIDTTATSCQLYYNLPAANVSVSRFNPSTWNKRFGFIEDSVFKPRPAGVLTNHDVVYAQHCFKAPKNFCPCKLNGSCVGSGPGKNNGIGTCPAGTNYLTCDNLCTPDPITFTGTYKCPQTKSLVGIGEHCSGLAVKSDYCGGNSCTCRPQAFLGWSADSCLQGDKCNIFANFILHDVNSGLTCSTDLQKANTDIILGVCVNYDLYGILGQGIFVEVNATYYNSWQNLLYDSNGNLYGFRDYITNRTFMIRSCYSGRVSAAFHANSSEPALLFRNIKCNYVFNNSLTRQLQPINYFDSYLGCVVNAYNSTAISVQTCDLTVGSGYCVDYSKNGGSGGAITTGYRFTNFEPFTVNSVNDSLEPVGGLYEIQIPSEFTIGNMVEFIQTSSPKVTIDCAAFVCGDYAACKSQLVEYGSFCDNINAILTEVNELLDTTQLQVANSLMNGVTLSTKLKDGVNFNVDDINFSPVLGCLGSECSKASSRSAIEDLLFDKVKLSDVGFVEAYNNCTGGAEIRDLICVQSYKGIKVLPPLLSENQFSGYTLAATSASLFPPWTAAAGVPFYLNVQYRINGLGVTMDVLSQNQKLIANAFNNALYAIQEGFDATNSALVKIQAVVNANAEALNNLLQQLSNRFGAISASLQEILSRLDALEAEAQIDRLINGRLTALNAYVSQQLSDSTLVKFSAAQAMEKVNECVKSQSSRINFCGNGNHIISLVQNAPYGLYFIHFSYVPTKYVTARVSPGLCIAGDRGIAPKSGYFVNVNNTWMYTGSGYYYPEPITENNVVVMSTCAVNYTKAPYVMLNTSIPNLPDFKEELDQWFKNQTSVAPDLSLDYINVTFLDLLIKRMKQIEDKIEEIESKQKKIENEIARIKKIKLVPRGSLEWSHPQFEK

B1: Cv2.1353 (recombinant human IgG1) (antibody, V domains shown)
VH: EVQLVESGGGLVQPGGSLRLSCAASGVTVSSNYMNWVRQAPGKGLEWVSVIYSGGSTFYADSVKGRFIISRDNSKNTLYLQMNSLKTEDTAVYYCARDLGPMGFDIWGQGTMVTVSS
VL: DIQMTQSPSFLSASVGDRVTITCRASQGISSYLAWYQQKPGKAPKLLIYAASTLQSGVPSRFSGSGSGTEFTLTISSLQPEDFATYYCQQLNSDPPVTFGPGTKVDIKR
B2: Cv2.1169 (recombinant human IgG1) (antibody)
heavy: QVQLVQSGPEVKKPGTSVKVSCKASGFTFTTSAVQWVRQARGQRLEWIGWIVVGSGNTNYAQKFQERVTITRDMSTTTAYMELSSLRSEDTAVYYCAAPYCSGGTCLDGFDIWGQGTMVTVSSASTKGPSVFPLAPSSKSTSGGTAALGCLVKDYFPEPVTVSWNSGALTSGVHTFPAVLQSSGLYSLSSVVTVPSSSLGTQTYICNVNHKPSNTKVDKKVEPKSCDKTHTCPPCPAPELLGGPSVFLFPPKPKDTLMISRTPEVTCVVVDVSHEDPEVKFNWYVDGVEVHNAKTKPREEQYNSTYRVVSVLTVLHQDWLNGKEYKCKVSNKALPAPIEKTISKAKQPREPQVYTLPPSRDELTKNQVSLTCLVKGFYPSDIAVEWESNGQPENNYKTTPPVLDSDGSFFLYSKLTVDKSRWQQGNVFSCSVMHEALHNHYTQKSLSLSPGK
light: not shown
notes: also called Cv2.1169 IgG
B3: Cv2.3194 (recombinant human IgG1) (antibody, V domains shown)
VH: EVQLVESGGGLIQPGGSLRLSCAASGITVTSNYMSWVRQAPGKGLEWVSVIYPGGSTFYADSVKGRFTISRDNSKNTLYLQMNSLRAEDTAVYYCARDLVVYGMDVWGQGTTVTVSS
VL: EIVLTQSPGTLSLSPGERATLSCRASQSVSSSYLAWYQQKPGQAPRLLIYGASSRATGIPGRFSGSGSGTDFTLTISRLEPEDFAIYYCQQGVTFGGGTKVEIKR
B4: Cv2.5213 (recombinant human IgG1) (antibody, V domains shown)
VH: B3 VH with I27F, T30S, V50L, P53S, F58Y, V100N, V101Y, T111A
VL: B1 VL with F10S, E70D, N92D, D94Y, P95S, V97F
B5: Cv2.3235 (recombinant human IgG1) (antibody, V domains shown)
VH: B3 VH with I27F, T30S, S31R, P53S, L99G, V100D, V101Y
VL: DIQMTQSPSFLSASVGDRVTITCRASQGISSFLAWYQQKPGKAPKLLIYGASTLQSGVTSRFSGSGSGTEFTLTISSLQPEDFATYYCQRLDSYPPITFGQGTRLEIKR

Key:
[1] = biological target: T1, CoV-229E Spike ectodomain; assay: ELISA, coated spike ectodomain
[2] = biological target: T2, CoV-OC43 Spike ectodomain; assay: ELISA, coated antigen; further: test concentration or dose not given here

Row | Binder | binding result [1] | ELISA OD [2]
1 | B1 | no binding | 0.8 OD
2 | B2 | no binding | 0.1 OD
3 | B3 | no binding | 0.8 OD
4 | B4 | no binding | 0.7 OD
5 | B5 | no binding | 0.3 OD
